According to US11505586B2, “Interaction of Draxin and γ-netrins” (Max-Planck-Gesellschaft zur Foerderung der Wissenschaften …, priority 2014, dated 2022):

Tests used:
[1] = test system: Netrin1a/DCC; test: AVEXIS based competition assay; type: binding, zebrafish; conditions: for inhibition of binding of Netrin1a to DCC: inhibitor added together with DCC prey, Netrin1a bait
Text: (§1) The procedure of the competition assay is based on the AVEXIS assay. Netrin1 receptors were used as prey proteins together with 6×His ? tagged purified Draxin (potential antagonist), and probed against Netrin1a bait proteins. The indicated concentrations of the potential inhibitors have been added together with prey proteins. For the competition tests with purified Draxin the concentration of the Netrin receptor prey proteins has been adjusted to an identical threshold binding concentration.
We determined the concentration of ECD-hFc fusion proteins in tissue culture supernatants by ELISA, using the human IgG Fc fragment (Calbiochem) as a reference. Dilution series of the ECD-hFc containing supernatants have been incubated over night at 4° C. on 96 well Maxisorp plates (Nunc). After 3 PBS washes the plates were blocked with 0.5% BSA containing PBS (1 h). After additional 2 PBS washes and 1-hour incubation with an anti-human IgG (Fc specific) antibody fused to alkaline phosphatase (SIGMA) the plates have been washed 3 times with PBS. The detection has been carried out by addition of 50 μl/well of the AP substrate p-nitrophenylphosphate (SouthernBiotech). The substrate turnover has been determined by measuring the absorbance at 405 nm.
(§2) By using an AVEXIS-based competition assay (FIG. 6 A) we tested whether the binding of DraxinA to Netrin1a has an influence on Netrins ability to bind to Netrin receptors. First we confirmed that we reliably detected the binding of Netrin1a to Netrin receptors of the DCC/Neo1 and Unc5 families with the AVEXIS method. We also tested whether Draxin is able to bind to the corresponding Netrin receptors. […] This has also been confirmed by a recent publication (Haddick et al. 2014). In the competition assay the extracellular domains (ECDs) of Netrin receptors have been used as prey proteins together with purified full length DraxinA and probed for binding against Netrin1a bait proteins. […] The inhibition is specific for DraxinA.

[2] = test system: Netrin1a; test: AVEXIS extracellular protein-protein interaction screen; type: binding, zebrafish
Text: To detect extracellular protein-protein interactions in a high-throughput manner we used the AVEXIS assay as described in Bushell et al. (Bushell et al., 2008) with minor modifications.
In brief: A zebrafish protein library enriched for mainly in neuronal tissues expressed secreted proteins and extracellular domains of cell surface proteins has been assembled. The library consists of prey and bait proteins. Preys are composed of the extracellular domain (ECD) of interest followed by a CD4 tag (rat Cd4d3+4) and a pentamerization domain derived from the rat Comp protein followed by β-lactamase. For the bait proteins the ECDs are fused to a CD4 tag and a biotinylation peptide. […] The proteins in the supernatants have been quantified and normalized.
The bait proteins have been immobilized on streptavidin coated 96 well microtiter plates (one bait/well) and incubated for 1 hour at room temperature. […] Then the absorbance at 486 nm of each well has been measured using a μQuant spectrophotometer (BIO-TEK Instruments, INC). […]
In the primary screen interactions were ‘called’ if the absorbance (at 486 nm) of a well after 1 h of incubation was ≥0.1 and 3 Sigma above the standard deviations of the mean of all wells. All interactions detected in the primary screen have been retested in a validation screen by using independently produced batches of proteins.

[3] = test system: RGMc/Neo1; test: AVEXIS based competition assay; type: binding, zebrafish
[4] = test system: Netrin1a/Unc5b; test: AVEXIS based competition assay; type: binding, zebrafish; conditions: purified protein with Unc5b prey, Netrin1a bait
Text: as §1, §2

[5] = test system: Netrin1a/Neo1; test: AVEXIS based competition assay; type: binding, zebrafish; conditions: purified protein with Neo1 prey, Netrin1a bait
Text: as §1, §2

[6] = test system: human β-Netrin family members; test: AVEXIS pairwise binding screen, human proteins; conditions: Netrin-4, Netrin-G1, Netrin-G2
Text: (§3) AVEXIS was used to test pairwise binding events in both bait/prey orientations between human DRAXIN, the derived 21 amino acid peptide, human Netrin family members, and two representative Netrin receptors (DCC, UNC5B). The Matn4-bait served as an internal prey-protein control and was used for normalization of the A486 nm values; conditioned medium (CM) serves as negative control; n=3.
(§4) To determine the binding specificity of DRAXIN/Netrin interactions, we carried out a pairwise binding screen between human DRAXIN and human Netrin family members. Except Netrin-5, we included all human Netrin family members consisting of two secreted γ-Netrins (Netrin-1 and Netrin-3) and one secreted (Netrin-4) and two GPI-linked β-Netrins (Netrin-G1 and Netrin-G2) in our binding study. Human DRAXIN and a 21 amino acid Netrin binding fragment derived thereof (SEQ ID NO.: 1) bound to Netrin-1 and Netrin-3 but not to human β-Netrin family members (FIG. 13).

[7] = target: T1, Netrin-3 (Homo sapiens, UniProt O00634); test: AVEXIS pairwise binding screen, human proteins; conditions: both bait/prey orientations
T1 construct: made in house; host or cells: HEK293-6E (general AVEXIS method)
T1 sequence (O00634 28-580): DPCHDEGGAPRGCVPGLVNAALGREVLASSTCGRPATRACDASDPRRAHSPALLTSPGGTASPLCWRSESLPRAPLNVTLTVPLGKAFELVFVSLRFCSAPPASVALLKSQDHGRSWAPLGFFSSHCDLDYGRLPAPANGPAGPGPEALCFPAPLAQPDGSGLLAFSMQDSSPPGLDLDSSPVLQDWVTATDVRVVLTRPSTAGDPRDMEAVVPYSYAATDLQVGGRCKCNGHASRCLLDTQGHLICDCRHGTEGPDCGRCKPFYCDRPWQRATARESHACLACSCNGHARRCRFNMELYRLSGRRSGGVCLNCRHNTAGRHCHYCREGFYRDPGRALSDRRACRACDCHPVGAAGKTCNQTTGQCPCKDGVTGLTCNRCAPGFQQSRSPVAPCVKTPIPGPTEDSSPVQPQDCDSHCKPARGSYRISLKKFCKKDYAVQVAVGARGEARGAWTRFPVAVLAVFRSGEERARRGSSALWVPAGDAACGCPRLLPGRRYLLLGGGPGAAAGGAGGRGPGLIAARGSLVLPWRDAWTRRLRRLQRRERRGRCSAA
Text: as §3, §4

[8] = target: T2, Netrin-1 (Homo sapiens, UniProt O95631); test: AVEXIS pairwise binding screen, human proteins; conditions: both bait/prey orientations
T2 construct: made in house; host or cells: HEK293-6E (general AVEXIS method)
Text: as §3, §4

[9] = test system: endogenous netrins; test: In situ detection of Draxin binding partners with affinity probe; parameters: species or system zebrafish
Method: A netrin binding fragment of Draxin (aa209-284) fused to the Fc region of human IgG (Draxinaa209-284-hFc) has been expressed in HEK293-6E cells and used as an affinity probe to detect binding partners in zebrafish embryos. Draxinaa209-284-hFc in situ staining has been done in whole mount wild type and netrin-1 knockdown zebrafish embryos. At 46 hpf wild type zebrafish embryos were dechorionated by for 2 hours at RT incubation in 0.1 mg/ml Pronase. At 48 hpf embryos were prefixed for 10 min at RT in 4% (w/v) paraformaldehyde (PFA) containing 1% Triton X-100 (v/v). After 3 washes (each 20 min) with PBS+1% Triton X-100 the embryos were blocked for 4 h at RT in PBS containing 0.2% BSA and 0.5% Triton X-100. Overnight incubation at 4° C. with HEK293-6E supernatant containing the Draxin-hFc fusion protein was followed by 3 short washes (10 min each) with PBST. Subsequently the embryos were post-fixed in 4% PFA (4 h at RT or overnight at 4° C.), rinsed shortly 3 times with PBST and incubated for 4 h at RT with an Alexa Fluor 568 goat anti human IgG antibody (Invitrogen, 1:250 dilution). After 3 washes (30 min each) in PBST the embryos were mounted in glycerol for visualization using a Zeiss LSM 510 microscope. […]

B1: DraxinA-hFc: full-length DraxinA fused to human Fc (protein)
chain: SEISSDNFKQSLTPSTTTSKEHPETGLTGGRQQKRHWSGKERDSAGLFSQRHMDRLEDDGTSMEGLSPVRLEMGPGDTMKAEVHGEVRASAQMRQGSHPAEGELNRKGRRHSHRLLAEHRKHGGKKDKGRGKGDLSDPEPELDSLLKDLNAFEDGLNTSPPNYNSVPLNEVPSPLSPILVTTAIKGHPPTLPPASTKPQKSSQGRTQGEVMPTLDMTLFDWTDYEDMKPADSWPSNKRKDKRRSKNKSNGNTTTEAGIVEPCDHHLDCLSGSCCDLREFECKPHNRGLNNKCFDDCMCEEGLRCYAKFHRKRRVTRRRGRCVDPESVNSNQGAFITV
modifications: left off: a dimerising Fc or GST
inhibition of binding of Netrin1a to DCC [1]: able to outcompete

B2: DraxinA: full-length zebrafish Draxin isoform A (SEQ ID NO.: 5), 360 amino acids; purified as His-tagged CD4d3+4 fusion (protein)
chain: MVAPGLCQLFILLLITLSHTLHSSEISSDNFKQSLTPSTTTSKEHPETGLTGGRQQKRHWSGKERDSAGLFSQRHMDRLEDDGTSMEGLSPVRLEMGPGDTMKAEVHGEVRASAQMRQGSHPAEGELNRKGRRHSHRLLAEHRKHGGKKDKGRGKGDLSDPEPELDSLLKDLNAFEDGLNTSPPNYNSVPLNEVPSPLSPILVTTAIKGHPPTLPPASTKPQKSSQGRTQGEVMPTLDMTLFDWTDYEDMKPADSWPSNKRKDKRRSKNKSNGNTTTEAGIVEPCDHHLDCLSGSCCDLREFECKPHNRGLNNKCFDDCMCEEGLRCYAKFHRKRRVTRRRGRCVDPESVNSNQGAFITV
modifications: His-tagged CD4d3+4 fusion; Danio rerio
notes: purified as His-tagged CD4d3+4 fusion
binding of prey protein to Netrin1a bait ([2]; pentameric prey, library of 171 bait proteins): specifically bound | disruption of already formed DCC/Netrin1a complexes ([1]; Netrin1a-baits preincubated with DCC preys, then purified DraxinA added): can be disrupted | inhibition of binding of Netrin1a to DCC [1]: concentration dependent inhibition | inhibition of binding of RGMc to Neo1 [3]: not able to block | inhibition of binding of Netrin1a to Unc5b [4]: concentration dependent inhibition | inhibition of binding of Netrin1a to Neo1 [5]: concentration dependent inhibition

B3: Human DRAXIN: human Draxin (SEQ ID NO.: 4) expressed as AVEXIS bait/prey protein (protein, listed as Homo sapiens)
chain: MAGPAIHTAPMLFLVLLLPLELSLAGALAPGTPARNLPENHIDLPGPALWTPQASHHRRRGPGKKEWGPGLPSQAQDGAVVTATRQASRLPEAEGLLPEQSPAGLLQDKDLLLGLALPYPEKENRPPGWERTRKRSREHKRRRDRLRLHQGRALVRGPSSLMKKAELSEAQVLDAAMEESSTSLAPTMFFLTTFEAAPATEESLILPVTSLRPQQAQPRSDGEVMPTLDMALFDWTDYEDLKPDGWPSAKKKEKHRGKLSSDGNETSPAEGEPCDHHQDCLPGTCCDLREHLCTPHNRGLNNKCFDDCMCVEGLRCYAKFHRNRRVTRRKGRCVEPETANGDQGSFINV
modifications: AVEXIS bait/prey tags
binding of human Draxin to zebrafish Netrin1a ([2]; cross-species, both bait-prey orientations): able to bind | binding to human β-Netrin family members [6]: not | binding to Netrin-3 [7]: bound | binding to Netrin-1 [8]: bound

B4: DraxinAΔaa231-252-hFc: DraxinA-hFc where the 21aa Netrin1 binding motif has been deleted (protein)
chain: SEISSDNFKQSLTPSTTTSKEHPETGLTGGRQQKRHWSGKERDSAGLFSQRHMDRLEDDGTSMEGLSPVRLEMGPGDTMKAEVHGEVRASAQMRQGSHPAEGELNRKGRRHSHRLLAEHRKHGGKKDKGRGKGDLSDPEPELDSLLKDLNAFEDGLNTSPPNYNSVPLNEVPSPLSPILVTTAIKGHPPTLPPASTKPQKSSQGRTQADSWPSNKRKDKRRSKNKSNGNTTTEAGIVEPCDHHLDCLSGSCCDLREFECKPHNRGLNNKCFDDCMCEEGLRCYAKFHRKRRVTRRRGRCVDPESVNSNQGAFITV
modifications: left off: a dimerising Fc or GST
inhibition of binding of Netrin1a to DCC [1]: not able to compete

B5: Draxinaa209-284-hFc: netrin binding fragment of Draxin (aa209-284) fused to the Fc region of human IgG, affinity probe (protein)
chain: GHPPTLPPASTKPQKSSQGRTQGEVMPTLDMTLFDWTDYEDMKPADSWPSNKRKDKRRSKNKSNGNTTTEAGIVEP
modifications: left off: a dimerising Fc or GST
in situ signal of bound affinity probe ([9]; 48 hpf netrin1a and netrin1b double-knockdown embryos): barely detectable | in situ signal of bound affinity probe ([9]; 48 hpf wild type embryos): only detect a signal in close proximity to the floor plate
